Six molecules from US20150374794A1 (Novo Nordisk, published 2015) can be followed below.

Numbered stars: 1 amine (or outer) side, 2 acyl side, 3 side chain; on linkers, the order of the positions; unused ones are H or OH. Square brackets hold non-standard residues; d marks the D form. Side chains are listed from the residue outwards. Ends that are not written are not given here. * marks the point of attachment. C18 diacid = O=C(O)CCCCCCCCCCCCCCCCC(=O)*; γGlu = O=C(O)[C@H](CCC(=O)[*:2])N[*:1]; Ac4c = NC1(C(=O)O)CCC1; AEEA = NCCOCCOCC(=O)O; Aib = CC(C)(N)C(=O)O

The term IC50 denotes the concentration at which inhibition is half-maximal.

Test [1] concerns the target T1, human GLP-1 receptor (human, UniProt P43220 24-463). Nature of the test: cell-based or functional assay.
Test [2] deals with T2, human glucagon receptor (human, UniProt P47871 26-477). Nature of the test: cell-based or functional assay.
T2 sequence (P47871 26-477): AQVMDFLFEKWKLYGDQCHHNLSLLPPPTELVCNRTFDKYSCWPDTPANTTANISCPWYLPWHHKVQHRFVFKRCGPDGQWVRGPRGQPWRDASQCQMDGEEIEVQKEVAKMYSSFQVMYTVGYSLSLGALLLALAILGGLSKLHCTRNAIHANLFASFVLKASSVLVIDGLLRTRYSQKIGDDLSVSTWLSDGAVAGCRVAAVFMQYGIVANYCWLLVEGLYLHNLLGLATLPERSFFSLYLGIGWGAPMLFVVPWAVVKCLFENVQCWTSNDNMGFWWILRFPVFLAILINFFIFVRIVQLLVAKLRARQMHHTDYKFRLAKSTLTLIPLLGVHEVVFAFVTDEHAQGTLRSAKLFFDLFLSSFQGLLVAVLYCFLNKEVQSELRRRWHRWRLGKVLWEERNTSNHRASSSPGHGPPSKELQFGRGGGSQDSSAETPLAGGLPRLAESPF
Test [3] concerns the target T1, human GLP-1 receptor. Nature of the test: displacement of 125I-GLP-1(7-36)NH2, membranes with human GLP-1R, SPA. The method, then:
The receptor binding of each compound to the human GLP-1 receptor was measured in a displacement binding assay. […] Each derivative was added in a series of concentrations to isolated membranes containing the human GLP-1 receptor and displacement of the labelled ligand was monitored. The receptor binding was reported as the concentration at which half of the labelled ligand was displaced from the receptor, the IC₅₀ value.
For orientation: Loss of bound radioactivity is the signal in a displacement assay; it reports binding, not function.

For test [4], the target named is T2, human glucagon receptor. The test is described as follows: displacement of 125I-glucagon, membranes with human glucagon receptor, SPA. The procedure: The receptor binding of each compound to the human glucagon receptor was measured in a displacement binding assay. […] Each derivative was added in a series of concentrations to isolated membranes containing the human glucagon receptor and displacement of the labelled ligand is monitored. The receptor binding was reported as the concentration at which half of the labelled ligand is displaced from the receptor, the IC₅₀ value.

B1: N^ε28-[2-[2-[2-[[2-[2-[2-[[(4S)-4-carboxy-4-[[(4S)-4-carboxy-4-[[(4S)-4-carboxy-4-(17-carboxyheptadecanoylamino)butanoyl]amino]butanoyl]amino]butanoyl]amino]eth … (peptide)
peptide: H[Aib]QGTFTSDLSKYLDARRARDFVQWLLK([AEEA-AEEA-γGlu-γGlu-γGlu-C18 diacid])T-NH2
modifications: N-terminus assumed
SMILES: CC(C)C[C@H](NC(=O)[C@H](Cc1ccc(O)cc1)NC(=O)[C@H](CCCCN)NC(=O)[C@H](CO)NC(=O)[C@H](CC(C)C)NC(=O)[C@H](CC(=O)O)NC(=O)[C@H](CO)NC(=O)[C@@H](NC(=O)[C@H](Cc1ccccc1)NC(=O)[C@@H](NC(=O)CNC(=O)[C@H](CCC(N)=O)NC(=O)C(C)(C)NC(=O)[C@@H](N)Cc1c[nH]cn1)[C@@H](C)O)[C@@H](C)O)C(=O)N[C@@H](CC(=O)O)C(=O)N[C@@H](C)C(=O)N[C@@H](CCCNC(=N)N)C(=O)N[C@@H](CCCNC(=N)N)C(=O)N[C@@H](C)C(=O)N[C@@H](CCCNC(=N)N)C(=O)N[C@@H](CC(=O)O)C(=O)N[C@@H](Cc1ccccc1)C(=O)N[C@H](C(=O)N[C@@H](CCC(N)=O)C(=O)N[C@@H](Cc1c[nH]c2ccccc12)C(=O)N[C@@H](CC(C)C)C(=O)N[C@@H](CC(C)C)C(=O)N[C@@H](CCCCNC(=O)COCCOCCNC(=O)COCCOCCNC(=O)CC[C@H](NC(=O)CC[C@H](NC(=O)CC[C@H](NC(=O)CCCCCCCCCCCCCCCCC(=O)O)C(=O)O)C(=O)O)C(=O)O)C(=O)N[C@H](C(N)=O)[C@@H](C)O)C(C)C
For the molecule B1, the “EC50 GLP-1R, CRE luciferase reporter gene assay in BHK cells” value (“EC50 GLP-1R” for short) with human GLP-1 receptor [1] is 4.3 pM. Further, the “EC50 GlucR, CRE luciferase reporter gene assay in BHK cells” value (“EC50 GlucR” below) with human glucagon receptor [2] amounted to 11.3 pM. Also, the concentration for half-maximal inhibition (IC50) in the test with human GLP-1 receptor [3] came out at 200 pM; with human glucagon receptor [4], 2600 pM.

B2: N^ε28-[2-[2-[2-[[2-[2-[2-[[(4S)-4-carboxy-4-[[(4S)-4-carboxy-4-[[(4S)-4-carboxy-4-(17-carboxyheptadecanoylamino)butanoyl]amino]butanoyl]amino]butanoyl]amino]eth … (peptide)
peptide: H[Aib]QGTFTSDLSRYLDARRAQDFVQWLLK([AEEA-AEEA-γGlu-γGlu-γGlu-C18 diacid])T-NH2
modifications: N-terminus assumed
SMILES: CC(C)C[C@H](NC(=O)[C@H](Cc1ccc(O)cc1)NC(=O)[C@H](CCCNC(=N)N)NC(=O)[C@H](CO)NC(=O)[C@H](CC(C)C)NC(=O)[C@H](CC(=O)O)NC(=O)[C@H](CO)NC(=O)[C@@H](NC(=O)[C@H](Cc1ccccc1)NC(=O)[C@@H](NC(=O)CNC(=O)[C@H](CCC(N)=O)NC(=O)C(C)(C)NC(=O)[C@@H](N)Cc1c[nH]cn1)[C@@H](C)O)[C@@H](C)O)C(=O)N[C@@H](CC(=O)O)C(=O)N[C@@H](C)C(=O)N[C@@H](CCCNC(=N)N)C(=O)N[C@@H](CCCNC(=N)N)C(=O)N[C@@H](C)C(=O)N[C@@H](CCC(N)=O)C(=O)N[C@@H](CC(=O)O)C(=O)N[C@@H](Cc1ccccc1)C(=O)N[C@H](C(=O)N[C@@H](CCC(N)=O)C(=O)N[C@@H](Cc1c[nH]c2ccccc12)C(=O)N[C@@H](CC(C)C)C(=O)N[C@@H](CC(C)C)C(=O)N[C@@H](CCCCNC(=O)COCCOCCNC(=O)COCCOCCNC(=O)CC[C@H](NC(=O)CC[C@H](NC(=O)CC[C@H](NC(=O)CCCCCCCCCCCCCCCCC(=O)O)C(=O)O)C(=O)O)C(=O)O)C(=O)N[C@H](C(N)=O)[C@@H](C)O)C(C)C
On to B2, for which the “EC50 GLP-1R” value with human GLP-1 receptor [1] was determined as 3 pM. Besides, in the test with human glucagon receptor [2], the “EC50 GlucR” value came to 20 pM. In addition, the IC50 was determined as 900 pM in the test with human GLP-1 receptor [3] and 5500 pM with human glucagon receptor [4].

B3: N^ε28-[2-[2-[2-[[2-[2-[2-[[(4S)-4-carboxy-4-[[(4S)-4-carboxy-4-[[(4S)-4-carboxy-4-(17-carboxyheptadecanoylamino)butanoyl]amino]butanoyl]amino]butanoyl]amino]eth … (peptide)
peptide: H[Ac4c]QGTFTSDLSKYLESRRAQDFVQWLLK([AEEA-AEEA-γGlu-γGlu-γGlu-C18 diacid])T-NH2
modifications: N-terminus assumed
SMILES: CC(C)C[C@H](NC(=O)[C@H](Cc1ccc(O)cc1)NC(=O)[C@H](CCCCN)NC(=O)[C@H](CO)NC(=O)[C@H](CC(C)C)NC(=O)[C@H](CC(=O)O)NC(=O)[C@H](CO)NC(=O)[C@@H](NC(=O)[C@H](Cc1ccccc1)NC(=O)[C@@H](NC(=O)CNC(=O)[C@H](CCC(N)=O)NC(=O)C1(NC(=O)[C@@H](N)Cc2c[nH]cn2)CCC1)[C@@H](C)O)[C@@H](C)O)C(=O)N[C@@H](CCC(=O)O)C(=O)N[C@@H](CO)C(=O)N[C@@H](CCCNC(=N)N)C(=O)N[C@@H](CCCNC(=N)N)C(=O)N[C@@H](C)C(=O)N[C@@H](CCC(N)=O)C(=O)N[C@@H](CC(=O)O)C(=O)N[C@@H](Cc1ccccc1)C(=O)N[C@H](C(=O)N[C@@H](CCC(N)=O)C(=O)N[C@@H](Cc1c[nH]c2ccccc12)C(=O)N[C@@H](CC(C)C)C(=O)N[C@@H](CC(C)C)C(=O)N[C@@H](CCCCNC(=O)COCCOCCNC(=O)COCCOCCNC(=O)CC[C@H](NC(=O)CC[C@H](NC(=O)CC[C@H](NC(=O)CCCCCCCCCCCCCCCCC(=O)O)C(=O)O)C(=O)O)C(=O)O)C(=O)N[C@H](C(N)=O)[C@@H](C)O)C(C)C
As for B3, in the test with human GLP-1 receptor [1], the “EC50 GLP-1R” value stood at 7 pM. The “EC50 GlucR” value in the test with human glucagon receptor [2] stood at 24 pM. Besides, the IC50 amounted to 800 pM in the test with human GLP-1 receptor [3] and 7700 pM with human glucagon receptor [4].

B4: N^ε28-[2-[2-[2-[[2-[2-[2-[[(4S)-4-carboxy-4-[[(4S)-4-carboxy-4-[[(4S)-4-carboxy-4-(17-carboxyheptadecanoylamino)butanoyl]amino]butanoyl]amino]butanoyl]amino]eth … (peptide)
peptide: H[Aib]QGTFTSDVSKYLDLRRAQDFVQWLLK([AEEA-AEEA-γGlu-γGlu-γGlu-C18 diacid])T-NH2
modifications: N-terminus assumed
SMILES: CC(C)C[C@H](NC(=O)[C@H](CC(=O)O)NC(=O)[C@H](CC(C)C)NC(=O)[C@H](Cc1ccc(O)cc1)NC(=O)[C@H](CCCCN)NC(=O)[C@H](CO)NC(=O)[C@@H](NC(=O)[C@H](CC(=O)O)NC(=O)[C@H](CO)NC(=O)[C@@H](NC(=O)[C@H](Cc1ccccc1)NC(=O)[C@@H](NC(=O)CNC(=O)[C@H](CCC(N)=O)NC(=O)C(C)(C)NC(=O)[C@@H](N)Cc1c[nH]cn1)[C@@H](C)O)[C@@H](C)O)C(C)C)C(=O)N[C@@H](CCCNC(=N)N)C(=O)N[C@@H](CCCNC(=N)N)C(=O)N[C@@H](C)C(=O)N[C@@H](CCC(N)=O)C(=O)N[C@@H](CC(=O)O)C(=O)N[C@@H](Cc1ccccc1)C(=O)N[C@H](C(=O)N[C@@H](CCC(N)=O)C(=O)N[C@@H](Cc1c[nH]c2ccccc12)C(=O)N[C@@H](CC(C)C)C(=O)N[C@@H](CC(C)C)C(=O)N[C@@H](CCCCNC(=O)COCCOCCNC(=O)COCCOCCNC(=O)CC[C@H](NC(=O)CC[C@H](NC(=O)CC[C@H](NC(=O)CCCCCCCCCCCCCCCCC(=O)O)C(=O)O)C(=O)O)C(=O)O)C(=O)N[C@H](C(N)=O)[C@@H](C)O)C(C)C
Turning to B4, the “EC50 GLP-1R” value with human GLP-1 receptor [1] is 4 pM. In addition, in the test with human glucagon receptor [2], the “EC50 GlucR” value was 17 pM. In addition, the IC50 was 700 pM with human GLP-1 receptor [3] and 5700 pM with human glucagon receptor [4].

B5: N^ε28-[2-[2-[2-[[2-[2-[2-[[(4S)-4-carboxy-4-[[(4S)-4-carboxy-4-[[(4S)-4-carboxy-4-(17-carboxyheptadecanoylamino)butanoyl]amino]butanoyl]amino]butanoyl]amino]eth … (peptide)
peptide: H[Aib]QGTFTSDVSKYLDARRAQDFVQWLLK([AEEA-AEEA-γGlu-γGlu-γGlu-C18 diacid])T-NH2
modifications: N-terminus assumed
SMILES: CC(C)C[C@H](NC(=O)[C@H](Cc1ccc(O)cc1)NC(=O)[C@H](CCCCN)NC(=O)[C@H](CO)NC(=O)[C@@H](NC(=O)[C@H](CC(=O)O)NC(=O)[C@H](CO)NC(=O)[C@@H](NC(=O)[C@H](Cc1ccccc1)NC(=O)[C@@H](NC(=O)CNC(=O)[C@H](CCC(N)=O)NC(=O)C(C)(C)NC(=O)[C@@H](N)Cc1c[nH]cn1)[C@@H](C)O)[C@@H](C)O)C(C)C)C(=O)N[C@@H](CC(=O)O)C(=O)N[C@@H](C)C(=O)N[C@@H](CCCNC(=N)N)C(=O)N[C@@H](CCCNC(=N)N)C(=O)N[C@@H](C)C(=O)N[C@@H](CCC(N)=O)C(=O)N[C@@H](CC(=O)O)C(=O)N[C@@H](Cc1ccccc1)C(=O)N[C@H](C(=O)N[C@@H](CCC(N)=O)C(=O)N[C@@H](Cc1c[nH]c2ccccc12)C(=O)N[C@@H](CC(C)C)C(=O)N[C@@H](CC(C)C)C(=O)N[C@@H](CCCCNC(=O)COCCOCCNC(=O)COCCOCCNC(=O)CC[C@H](NC(=O)CC[C@H](NC(=O)CC[C@H](NC(=O)CCCCCCCCCCCCCCCCC(=O)O)C(=O)O)C(=O)O)C(=O)O)C(=O)N[C@H](C(N)=O)[C@@H](C)O)C(C)C
Take B5: the “EC50 GLP-1R” value in the test with human GLP-1 receptor [1] was 1.5 pM. Moreover, in the test with human glucagon receptor [2], the “EC50 GlucR” value was found to be 30 pM. Moreover, the results for the IC50 with human GLP-1 receptor [3] and in the test with human glucagon receptor [4] were 200 pM and 3200 pM, respectively.

B6: N^ε28-[2-[2-[2-[[2-[2-[2-[[(4S)-4-carboxy-4-[[(4S)-4-carboxy-4-[[(4S)-4-carboxy-4-(17-carboxyheptadecanoylamino)butanoyl]amino]butanoyl]amino]butanoyl]amino]eth … (peptide)
peptide: H[Aib]QGTFTSDVSRYLDARRAQDFVQWLLK([AEEA-AEEA-γGlu-γGlu-γGlu-C18 diacid])T-NH2
modifications: N-terminus assumed
SMILES: CC(C)C[C@H](NC(=O)[C@H](Cc1ccc(O)cc1)NC(=O)[C@H](CCCNC(=N)N)NC(=O)[C@H](CO)NC(=O)[C@@H](NC(=O)[C@H](CC(=O)O)NC(=O)[C@H](CO)NC(=O)[C@@H](NC(=O)[C@H](Cc1ccccc1)NC(=O)[C@@H](NC(=O)CNC(=O)[C@H](CCC(N)=O)NC(=O)C(C)(C)NC(=O)[C@@H](N)Cc1c[nH]cn1)[C@@H](C)O)[C@@H](C)O)C(C)C)C(=O)N[C@@H](CC(=O)O)C(=O)N[C@@H](C)C(=O)N[C@@H](CCCNC(=N)N)C(=O)N[C@@H](CCCNC(=N)N)C(=O)N[C@@H](C)C(=O)N[C@@H](CCC(N)=O)C(=O)N[C@@H](CC(=O)O)C(=O)N[C@@H](Cc1ccccc1)C(=O)N[C@H](C(=O)N[C@@H](CCC(N)=O)C(=O)N[C@@H](Cc1c[nH]c2ccccc12)C(=O)N[C@@H](CC(C)C)C(=O)N[C@@H](CC(C)C)C(=O)N[C@@H](CCCCNC(=O)COCCOCCNC(=O)COCCOCCNC(=O)CC[C@H](NC(=O)CC[C@H](NC(=O)CC[C@H](NC(=O)CCCCCCCCCCCCCCCCC(=O)O)C(=O)O)C(=O)O)C(=O)O)C(=O)N[C@H](C(N)=O)[C@@H](C)O)C(C)C
As for B6, the “EC50 GLP-1R” value in the test with human GLP-1 receptor [1] amounted to 3 pM. In addition, in the test with human glucagon receptor [2], the “EC50 GlucR” value turned out to be 57 pM. Also, the IC50 turned out to be 500 pM in the test with human GLP-1 receptor [3] and 11300 pM with human glucagon receptor [4].
